Source: US20260167699A1 (Chugai, published 2026)

The binders below were run against T1, FcγRIIIa (human, UniProt P08637 17-208) (assay: SPR (Biacore);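 further: antibody variants captured on an SPR sensor chip, with FcγRIIIa passed over as analyte in HBS-EP+ buffer at 25 °C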).
T1 construct: extracellular domain; also called 3a; FcγRIIIa extracellular domain
T1 sequence (P08637 other isoform, or with tags, fused parts or gaps): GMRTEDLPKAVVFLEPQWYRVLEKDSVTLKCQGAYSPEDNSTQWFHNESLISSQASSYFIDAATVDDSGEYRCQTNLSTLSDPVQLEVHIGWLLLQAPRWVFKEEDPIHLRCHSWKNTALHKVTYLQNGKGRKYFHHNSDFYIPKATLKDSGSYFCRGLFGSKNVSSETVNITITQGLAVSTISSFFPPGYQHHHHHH

Binder	He/Con 3a
GpH7-A5/GpH7-B3 variant G236_03V/GpL16-k0 (antibody, human IgG1, kappa, copies: 1 + 1 + 2) heavy 1: not shown heavy 2: not shown light: DIVMTQSPLSLPVTPGEPASISCQASESLVHSNRNTYLHWYLQKPGQSPQLLIYKVSNRFSGVPDRFSGSGSGTDFTLKISRVEAEDVGVYYCSQNTHVPPTFGQGTKVEIERTVAAPSVFIFPPSDEQLKSGTASVVCLLNNFYPREAKVQWKVDNALQSGNSQESVTEQDSKDSTYSLSSTLTLSKADYEKHKVYACEVTHQGLSSPVTKSFNRGEC	53.8 % of GpH7-A5/GpH7-B3/GpL16-k0
GpH7-A5/GpH7-B3 variant E333_19Q/GpL16-k0 (antibody, human IgG1, kappa, copies: 1 + 1 + 2) heavy 1: not shown heavy 2: not shown light: DIVMTQSPLSLPVTPGEPASISCQASESLVHSNRNTYLHWYLQKPGQSPQLLIYKVSNRFSGVPDRFSGSGSGTDFTLKISRVEAEDVGVYYCSQNTHVPPTFGQGTKVEIERTVAAPSVFIFPPSDEQLKSGTASVVCLLNNFYPREAKVQWKVDNALQSGNSQESVTEQDSKDSTYSLSSTLTLSKADYEKHKVYACEVTHQGLSSPVTKSFNRGEC	101 % of GpH7-A5/GpH7-B3/GpL16-k0
GpH7-A5/GpH7-B3 variant E333_18N/GpL16-k0 (antibody, human IgG1, kappa, copies: 1 + 1 + 2) heavy 1: not shown heavy 2: not shown light: DIVMTQSPLSLPVTPGEPASISCQASESLVHSNRNTYLHWYLQKPGQSPQLLIYKVSNRFSGVPDRFSGSGSGTDFTLKISRVEAEDVGVYYCSQNTHVPPTFGQGTKVEIERTVAAPSVFIFPPSDEQLKSGTASVVCLLNNFYPREAKVQWKVDNALQSGNSQESVTEQDSKDSTYSLSSTLTLSKADYEKHKVYACEVTHQGLSSPVTKSFNRGEC	76.2 % of GpH7-A5/GpH7-B3/GpL16-k0
GpH7-A5/GpH7-B3 variant E333_14T/GpL16-k0 (antibody, human IgG1, kappa, copies: 1 + 1 + 2) heavy 1: not shown heavy 2: not shown light: DIVMTQSPLSLPVTPGEPASISCQASESLVHSNRNTYLHWYLQKPGQSPQLLIYKVSNRFSGVPDRFSGSGSGTDFTLKISRVEAEDVGVYYCSQNTHVPPTFGQGTKVEIERTVAAPSVFIFPPSDEQLKSGTASVVCLLNNFYPREAKVQWKVDNALQSGNSQESVTEQDSKDSTYSLSSTLTLSKADYEKHKVYACEVTHQGLSSPVTKSFNRGEC	100 % of GpH7-A5/GpH7-B3/GpL16-k0
GpH7-A5/GpH7-B3 variant E333_15Y/GpL16-k0 (antibody, human IgG1, kappa, copies: 1 + 1 + 2) heavy 1: not shown heavy 2: not shown light: DIVMTQSPLSLPVTPGEPASISCQASESLVHSNRNTYLHWYLQKPGQSPQLLIYKVSNRFSGVPDRFSGSGSGTDFTLKISRVEAEDVGVYYCSQNTHVPPTFGQGTKVEIERTVAAPSVFIFPPSDEQLKSGTASVVCLLNNFYPREAKVQWKVDNALQSGNSQESVTEQDSKDSTYSLSSTLTLSKADYEKHKVYACEVTHQGLSSPVTKSFNRGEC	101 % of GpH7-A5/GpH7-B3/GpL16-k0

Now from value to binder:

He/Con 3a	Binder
55.6 % of GpH7-A5/GpH7-B3/GpL16-k0	GpH7-A5/GpH7-B3 variant G236_07I/GpL16-k0 (antibody, human IgG1, kappa, copies: 1 + 1 + 2) heavy 1: not shown heavy 2: not shown light: DIVMTQSPLSLPVTPGEPASISCQASESLVHSNRNTYLHWYLQKPGQSPQLLIYKVSNRFSGVPDRFSGSGSGTDFTLKISRVEAEDVGVYYCSQNTHVPPTFGQGTKVEIERTVAAPSVFIFPPSDEQLKSGTASVVCLLNNFYPREAKVQWKVDNALQSGNSQESVTEQDSKDSTYSLSSTLTLSKADYEKHKVYACEVTHQGLSSPVTKSFNRGEC
95.7 % of GpH7-A5/GpH7-B3/GpL16-k0	GpH7-A5/GpH7-B3 variant H268_01G/GpL16-k0 (antibody, human IgG1, kappa, copies: 1 + 1 + 2) heavy 1: not shown heavy 2: not shown light: DIVMTQSPLSLPVTPGEPASISCQASESLVHSNRNTYLHWYLQKPGQSPQLLIYKVSNRFSGVPDRFSGSGSGTDFTLKISRVEAEDVGVYYCSQNTHVPPTFGQGTKVEIERTVAAPSVFIFPPSDEQLKSGTASVVCLLNNFYPREAKVQWKVDNALQSGNSQESVTEQDSKDSTYSLSSTLTLSKADYEKHKVYACEVTHQGLSSPVTKSFNRGEC
60.3 % of GpH7-A5/GpH7-B3/GpL16-k0	GpH7-A5/GpH7-B3 variant G236_13S/GpL16-k0 (antibody, human IgG1, kappa, copies: 1 + 1 + 2) heavy 1: not shown heavy 2: not shown light: DIVMTQSPLSLPVTPGEPASISCQASESLVHSNRNTYLHWYLQKPGQSPQLLIYKVSNRFSGVPDRFSGSGSGTDFTLKISRVEAEDVGVYYCSQNTHVPPTFGQGTKVEIERTVAAPSVFIFPPSDEQLKSGTASVVCLLNNFYPREAKVQWKVDNALQSGNSQESVTEQDSKDSTYSLSSTLTLSKADYEKHKVYACEVTHQGLSSPVTKSFNRGEC
75.6 % of GpH7-A5/GpH7-B3/GpL16-k0	GpH7-A5/GpH7-B3 variant H268_05P/GpL16-k0 (antibody, human IgG1, kappa, copies: 1 + 1 + 2) heavy 1: not shown heavy 2: not shown light: DIVMTQSPLSLPVTPGEPASISCQASESLVHSNRNTYLHWYLQKPGQSPQLLIYKVSNRFSGVPDRFSGSGSGTDFTLKISRVEAEDVGVYYCSQNTHVPPTFGQGTKVEIERTVAAPSVFIFPPSDEQLKSGTASVVCLLNNFYPREAKVQWKVDNALQSGNSQESVTEQDSKDSTYSLSSTLTLSKADYEKHKVYACEVTHQGLSSPVTKSFNRGEC
50.5 % of GpH7-A5/GpH7-B3/GpL16-k0	GpH7-A5/GpH7-B3 variant G237_14T/GpL16-k0 (antibody, human IgG1, kappa, copies: 1 + 1 + 2) heavy 1: not shown heavy 2: not shown light: DIVMTQSPLSLPVTPGEPASISCQASESLVHSNRNTYLHWYLQKPGQSPQLLIYKVSNRFSGVPDRFSGSGSGTDFTLKISRVEAEDVGVYYCSQNTHVPPTFGQGTKVEIERTVAAPSVFIFPPSDEQLKSGTASVVCLLNNFYPREAKVQWKVDNALQSGNSQESVTEQDSKDSTYSLSSTLTLSKADYEKHKVYACEVTHQGLSSPVTKSFNRGEC
91.4 % of GpH7-A5/GpH7-B3/GpL16-k0	GpH7-A5/GpH7-B3 variant H268_03V/GpL16-k0 (antibody, human IgG1, kappa, copies: 1 + 1 + 2) heavy 1: not shown heavy 2: not shown light: DIVMTQSPLSLPVTPGEPASISCQASESLVHSNRNTYLHWYLQKPGQSPQLLIYKVSNRFSGVPDRFSGSGSGTDFTLKISRVEAEDVGVYYCSQNTHVPPTFGQGTKVEIERTVAAPSVFIFPPSDEQLKSGTASVVCLLNNFYPREAKVQWKVDNALQSGNSQESVTEQDSKDSTYSLSSTLTLSKADYEKHKVYACEVTHQGLSSPVTKSFNRGEC
51.3 % of GpH7-A5/GpH7-B3/GpL16-k0	GpH7-A5/GpH7-B3 variant G237_03V/GpL16-k0 (antibody, human IgG1, kappa, copies: 1 + 1 + 2) heavy 1: not shown heavy 2: not shown light: DIVMTQSPLSLPVTPGEPASISCQASESLVHSNRNTYLHWYLQKPGQSPQLLIYKVSNRFSGVPDRFSGSGSGTDFTLKISRVEAEDVGVYYCSQNTHVPPTFGQGTKVEIERTVAAPSVFIFPPSDEQLKSGTASVVCLLNNFYPREAKVQWKVDNALQSGNSQESVTEQDSKDSTYSLSSTLTLSKADYEKHKVYACEVTHQGLSSPVTKSFNRGEC
